What was measured:
[1] = biological target: endogenous TrkB of cultured rat hippocampal neurons (rat (endogenous in hippocampal neurons)) (UniProt Q63604); assay: native gel or EMSA; native PAGE (no SDS, no β-ME) of lysates of rat hippocampal neurons treated with vehicle or BDNF (1.0 nM, 15 min); Western blot with anti-TrkB antibodies (80E3, MM12)
[2] = biological target: endogenous TrkB of cultured rat hippocampal neurons (rat (endogenous in hippocampal neurons)) (UniProt Q63604); assay: non-reducing SDS-PAGE and Western blot; lysates of rat hippocampal neurons (vehicle or BDNF 1.0 nM) with SDS, without β-ME; blots with 80E3 and MM12

Chain of endogenous TrkB of cultured rat hippocampal neurons, Q63604 32-821 (receptor; other documents disagree on this pair) (Q63604 32-821): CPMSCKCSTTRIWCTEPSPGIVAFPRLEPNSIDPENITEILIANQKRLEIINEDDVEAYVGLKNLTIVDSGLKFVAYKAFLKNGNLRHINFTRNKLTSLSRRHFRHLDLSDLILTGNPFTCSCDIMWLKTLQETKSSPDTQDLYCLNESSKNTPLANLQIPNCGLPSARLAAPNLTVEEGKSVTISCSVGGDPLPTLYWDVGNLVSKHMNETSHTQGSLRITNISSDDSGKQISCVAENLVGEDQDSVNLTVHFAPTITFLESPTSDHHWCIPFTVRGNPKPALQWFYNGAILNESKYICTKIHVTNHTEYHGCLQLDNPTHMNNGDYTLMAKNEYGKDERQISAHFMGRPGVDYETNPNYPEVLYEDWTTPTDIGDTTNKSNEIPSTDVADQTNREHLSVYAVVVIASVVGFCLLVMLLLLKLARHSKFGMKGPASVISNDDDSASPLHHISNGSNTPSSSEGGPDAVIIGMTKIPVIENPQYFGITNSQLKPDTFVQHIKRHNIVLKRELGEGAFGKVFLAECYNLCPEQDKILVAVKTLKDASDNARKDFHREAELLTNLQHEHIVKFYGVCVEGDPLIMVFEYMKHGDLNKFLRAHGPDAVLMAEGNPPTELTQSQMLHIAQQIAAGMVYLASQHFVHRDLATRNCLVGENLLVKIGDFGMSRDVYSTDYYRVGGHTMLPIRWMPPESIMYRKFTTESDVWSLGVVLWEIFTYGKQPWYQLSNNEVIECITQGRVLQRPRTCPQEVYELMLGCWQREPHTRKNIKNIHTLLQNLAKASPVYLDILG

stoichiometry N [1]: 2
stoichiometry N [2]: 2
Substance: endogenous TrkB of cultured rat hippocampal neurons, Q63604 32-821 (receptor; other documents disagree on this pair)
